# Experimental data published in patent publication US8975044B2, “Polynucleotides encoding for frizzled-binding agents and uses thereof” (OncoMed Pharmaceuticals, Inc., priority 2008, dated 2015).
# T1: FZD8 binding to Wnt3A (Homo sapiens, UniProt Q9H461)
# T1 construct: amino acids 1-157 of FZD8 linked in-frame to human IgG1 Fc
# T1 sequence (Q9H461 28-157): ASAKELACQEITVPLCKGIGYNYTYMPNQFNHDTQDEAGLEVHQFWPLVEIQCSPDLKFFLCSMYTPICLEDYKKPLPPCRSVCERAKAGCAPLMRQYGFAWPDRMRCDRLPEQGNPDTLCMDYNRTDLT
# B1: Fzd8-Fc: soluble FZD8-Fc containing the Fri domain (amino acids 1-157 of FZD8 linked in-frame to human IgG1 Fc) (protein)
# chain: T1 sequence (Q9H461 28-157)
# modifications: left off: a dimerising Fc or GST
# Target: T1, FZD8 binding to Wnt3A
# Test: Blocking of FZD8-Fc binding to Wnt3A (protein A depletion, STF293 reporter readout)
# Assay type: biochemical
# Settings: in the absence of 18R8
# Description: To assess the ability of 18R8 to block the binding of FZD to Wnt, 2 μl of 1.32 μg/μl soluble FZD8-Fc containing the Fri domain (amino acids 1-157 of FZD8 linked in-frame to human IgG1 Fc) was added to culture medium to bind Wnt3A (added as 20 μl of Wnt3A conditioned medium) either alone or in the presence of the 18R8 IgG antibody (added as 4 μl of 3.71 μg/μl). The mixtures were incubated either alone or in the presence of Protein A sepharose beads (GE Healthcare products; 20 μl of 50% solution in PBS) for two hrs at 4° C. After the incubation, the protein A beads (and any proteins complexed to the protein A beads) in each sample were removed by spinning and the supernatant was assayed for ability to induce 8×TCF luciferase activity. The supernatant was added to STF293 cells, which stably express 8×TCF (eight copies of the TCF-binding domain upstream of a firefly luciferase reporter gene) to measure canonical Wnt signaling levels and which were cultured in DMEM supplemented with antibiotics and 10% FCS. Eighteen hours following treatment of the STF293 cells, luciferase levels were measured using a dual luciferase assay kit (Promega; Madison, Wis.).
molecule,measurement,value
B1,effect on Wnt3A-stimulated signaling,inhibit the ability of Wnt3A to stimulate signaling
